Assay results as given in the RNAGym collection of RNA variant scans (doi:10.1093/molbev/msab373).

B1: Azoarcus group I ribozyme (parent)
chain: GUGCCUUGCGCCGGGAAACCACGCAAGGGAUGGUGUCAAAUUCGGCGAAACCUAAGCGCCCGCCCGGGCGUAUGGCAACGCCGAGCCAAGCUUCGGCGCCUGCGCCGAUGAAGGUGUAGAGACUAGACGGCACCCACCUAAGGCAAACGCUAUGGUGAAGGCAUAGUCCAGGGAGUGGCGAAAGUCACACAAACCGG

Variants of: B1
Test: reverse-splicing fitness (ratio to wild type); higher = more active; in vitro selection; Mg2+ level not given
How it was run: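 An in vitro group I ribozyme library with randomized positions was T7-transcribed and gel-purified. In triplicate, 10 pmol RNA in EPPS pH 7.5 was reacted with 50 pmoles of a 30-nt RNA substrate for 1 h at 37 °C across several added MgCl2 levels (1–48 mM), then stopped with EDTA. Products were reverse transcribed from a substrate-complementary primer, PCR-amplified and sequenced (HiSeq 4000). Fitness is a variant's read proportion after selection over that before, normalised to wild type.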

Variant	reverse-splicing fitness
A111U A120G A145G C169G U176A	0.0455
A111U A120G A145G C169G U176C	0.0601
A111U A120U A145U U176A	0.241
A111U A120G A145U C150G C169G U176G	0.00439
A111U A120G A145U C150G C169G U176A	0.00701
A111U A120G A145U C150G C169G U176C	0.0049
A111U A120U A145C C169A U176G	0.00152
A111U A120U A145C C169A U176A	0.0026
A111U A120U A145C C169A U176C	0.00249
A111U A120G U176C	0.0497
A111U A120G U176A	0.0388
A111U A120G U176G	0.00656
A111U A120G C150U C169U U176C	0.0386
A111U A120G C150U C169U U176G	0.00701
A111U A120G C150U C169U U176A	0.0401
A111U A120U A145G C169A U176G	0.00247
A111U A120U A145G C169A U176C	0.00376
A111U A120U A145G C169A U176A	0.00212
A111U A120G C150A U176A	0.0147
A111U A120G C150A U176G	0.00685
A111U A120G C150A U176C	0.0216

Variant	reverse-splicing fitness
A111U A120U A145U C150G C169G U176G	0.00207
A111U A120U A145U C150G C169G U176A	0.00294
A111U A120U A145U C150G C169G U176C	0.00228
A111U A120U A145G C169G U176G	0.00167
A111U A120U A145G C169G U176A	0.00549
A111U A120U A145G C169G U176C	0.00918
A111U A120U A145C C150U	0.15
A111U A120U A145C C150A	0.0261
A111U A120U A145C C150G	0.0741
A111U A120U A145C U176A	0.194
A111U A120U A145C U176G	0.0539
A111U A120U A145C U176C	0.168
A111U A120U A145G C150G C169G	0.01
A111U A120U A145G C150G C169U	0.0125
A111U A120U A145G C150G C169A	0.00796
A111U A120U A145U C150U C169G U176G	0.00227
A111U A120U A145U C150U C169G U176C	0.00596
A111U A120U A145U C150U C169G U176A	0.00542
A111U A120G A145U C150A C169G	0.0206
A111U A120G A145U C150A C169U	0.0181
A111U A120G A145U C150A C169A	0.0164

Variant	reverse-splicing fitness
A111U A120U A145C C169U U176G	0.00245
A111U A120U A145C C169U U176A	0.00945
A111U A120U A145C C169U U176C	0.00989
A111U A120G A145U C150U C169A U176C	0.0207
A111U A120G A145U C150U C169A U176G	0.00508
A111U A120G A145U C150U C169A U176A	0.0184
A111U A120U A145G C150U C169A U176G	0.00237
A111U A120U A145G C150U C169A U176C	0.00389
A111U A120U A145G C150U C169A U176A	0.00497
A111U A120U A145U C150U U176G	0.0292
A111U A120U A145U C150U U176C	0.174
A111U A120U A145U C150U U176A	0.16
A111U A120U A145G C150G C169G U176G	0.00343
A111U A120U A145G C150G C169G U176C	0.00495
A111U A120U A145G C150G C169G U176A	0.00683
A111U A120G A145G C169A U176A	0.0312
A111U A120G A145G C169A U176C	0.0453
A111U A120G A145G C169A U176G	0.00472
A111U A120G A145U C150U C169U U176G	0.0055
A111U A120G A145U C150U C169U U176C	0.0395
A111U A120G A145U C150U C169U U176A	0.0396

Variant	reverse-splicing fitness
A111U A120U A145G C150G C169A U176C	0.00774
A111U A120U A145G C150G C169A U176A	0.0087
A111U A120U A145G C150G C169A U176G	0.00452
A111U A120U A145G C150G U176G	0.00387
A111U A120U A145G C150G U176A	0.01
A111U A120U A145G C150G U176C	0.0225
A111U A120U A145G C150A C169A U176A	0.0049
A111U A120U A145G C150A C169A U176C	0.0038
A111U A120U A145G C150A C169A U176G	0.00281
A111U A120U A145C C150U C169G U176G	0.00222
A111U A120U A145C C150U C169G U176A	0.0032
A111U A120U A145C C150U C169G U176C	0.00276
A111U A120U A145G C150U C169G	0.0377
A111U A120U A145G C150U C169U	0.0617
A111U A120U A145G C150U C169A	0.00694
A111U A120U A145U	0.607
A111U A120U A145G	0.593
A111U A120U A145C	0.518
A111U A120U A145C C150G C169G U176A	0.00251
A111U A120U A145C C150G C169G U176C	0.00254
A111U A120U A145C C150G C169G U176G	0.00228
